# Assay results: article PMC4501333, “ATF4 licenses C/EBPβ activity in human mesenchymal stem cells primed for adipogenesis”
# B1: hybrid (ATF4 motif) EMSA probe (dsDNA)
# DNA 1: GAGCAAATCTGATGCAATATAAGTC
# DNA 2: GGACTTATATTGCATCAGATTTGCT
# B2: palindromic C/EBP EMSA probe (dsDNA)
# DNA 1: GAGCAAATATTGCGCAATATAAGTC
# DNA 2: GGACTTATATTGCGCAATATTTGCT
# Columns and labels:
# ATF4 = ATF4 (UniProt P18848 1-351); assay: EMSA; ATF4 alone, up to 90 uM; probe 0.25 nM; EMSA: 10 mM HEPES pH 7.8, 50 mM NaCl, 10 mM MgCl2, 5 mM DTT, protease inhibitor, 0.25 mg/ml BSA, 5 ng/ul poly dIdC, 5% glycerol, ~5 fmol probe in 20 ul; native; conditions: protein: recombinant; tags: N-terminal His (pET30a); chain copies: 2; label: 32P
# Sequence of ATF4 (P18848 whole entry): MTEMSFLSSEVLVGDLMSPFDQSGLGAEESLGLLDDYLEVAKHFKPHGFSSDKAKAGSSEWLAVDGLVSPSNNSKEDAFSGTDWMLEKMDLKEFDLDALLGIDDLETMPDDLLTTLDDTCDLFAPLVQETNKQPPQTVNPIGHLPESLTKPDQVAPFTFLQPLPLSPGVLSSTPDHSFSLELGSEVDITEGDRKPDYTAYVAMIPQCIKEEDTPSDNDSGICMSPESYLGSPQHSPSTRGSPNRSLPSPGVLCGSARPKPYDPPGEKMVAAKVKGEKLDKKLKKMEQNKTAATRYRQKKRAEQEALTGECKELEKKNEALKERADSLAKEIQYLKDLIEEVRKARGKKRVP
# [1] = target: C/EBPβ (heterodimer subunit);ATF4 (heterodimer subunit) (human?;human?, UniProt P17676;P18848 1-345;1-351, |); assay: EMSA; ATF4 added to C/EBPβ; higher affinity than C/EBPβ homodimer; antibodies inhibit heterodimer binding; EMSA: 10 mM HEPES pH 7.8, 50 mM NaCl, 10 mM MgCl2, 5 mM DTT, protease inhibitor, 0.25 mg/ml BSA, 5 ng/ul poly dIdC, 5% glycerol, ~5 fmol probe in 20 ul; native; conditions: protein: recombinant;recombinant; tags: N-terminal His (pET30a);N-terminal His (pET30a); copies: 1;1; label: 32P
# Sequence of C/EBPβ (heterodimer subunit);ATF4 (heterodimer subunit) (P17676 whole entry, chain 1 of 2): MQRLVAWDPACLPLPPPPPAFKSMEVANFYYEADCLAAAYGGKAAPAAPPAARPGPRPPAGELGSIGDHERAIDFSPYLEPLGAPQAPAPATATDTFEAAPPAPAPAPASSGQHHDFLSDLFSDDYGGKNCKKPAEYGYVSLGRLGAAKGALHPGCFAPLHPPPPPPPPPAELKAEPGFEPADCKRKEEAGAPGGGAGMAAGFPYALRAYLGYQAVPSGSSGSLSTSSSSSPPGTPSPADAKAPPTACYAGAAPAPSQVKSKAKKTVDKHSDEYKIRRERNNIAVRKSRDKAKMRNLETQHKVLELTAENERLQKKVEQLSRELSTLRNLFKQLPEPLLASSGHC
# Sequence of C/EBPβ (heterodimer subunit);ATF4 (heterodimer subunit) (P18848 whole entry, chain 2 of 2): as the sequence (P18848 whole entry) above
# C/EBPβ = C/EBPβ (UniProt P17676 1-345); assay: EMSA; C/EBPβ 100-900 nM; preferred site; probe 0.25 nM; EMSA: 10 mM HEPES pH 7.8, 50 mM NaCl, 10 mM MgCl2, 5 mM DTT, protease inhibitor, 0.25 mg/ml BSA, 5 ng/ul poly dIdC, 5% glycerol, ~5 fmol probe in 20 ul; native; conditions: protein: recombinant; tags: N-terminal His (pET30a); chain copies: 2; label: 32P
# Sequence of C/EBPβ (P17676 whole entry): as the sequence (P17676 whole entry, chain 1 of 2) above
Binder,binding result (ATF4),binding result [1],binding result (C/EBPβ)
B1,no binding,binds,–
B2,no binding,–,binds
